Test results taken from patent US20250205190A1, “NUTRITIONAL COMPOSITION” (N.V. NUTRICIA, priority 2022, published 2025).

Assays:
Experiment in all cases: i-screen in vitro colon microbiota model, fermentation of infant faecal pool, 16S rRNA sequencing
Type in all cases: cell-based
Conditions in all cases: t = 24 hours anaerobic fermentation, SIEM medium, 37° C., triplicate, ingredient conc. per Table 1
[1] = test system: Bacteroidaceae
Experimental: (§1) In an in vitro colon microbiota model, i-screen™ (TNO, Zeist, Netherlands), the effect of infant milk formula ingredients on the anaerobic fermentation of infant microbiota was assessed.
(§2) The in vitro microbiota model mimics colonic conditions. Before a consumed ingredient reaches the colon in a human, already a part of the digestion/absorption has taken place in the gastrointestinal tract preceding the colon. For each ingredient the degree of digestion/absorption before reaching the colon varies and this was taken into account when selecting the ingredient concentrations to be tested (see Table 1).
(§3) The infant faecal pool consisted of samples obtained from faeces of 5 European infants aged 3.5-8.5 months. The samples were thawed, homogenized, aliquoted and stored at −80° C. till the start of the i-screen assay run.
(§4) • Before starting the fermentation with the test ingredients. The infant fecal pool was incubated in an anaerobic flask for 4 hours in SIEM (simulated ileal environment media) medium (pH 5.8) under anaerobic conditions (37° C.; 300 rpm). Subsequently this SIEM medium with feces was homogenized and distributed into a 96 w-plate. • The test ingredients were pre-diluted in a higher concentration in fresh SIEM medium and added to the existing medium in the 96 wells plate. For milk fat the addition method was slightly adapted, milk fat was added to fresh SIEM medium at 45° C., subsequently thoroughly homogenized, followed by addition to the wells in the 96 w plate. • The i-screen experiment included an untreated control (microbiota only), an positive control (Inulin, Raftiline ST), blanks (SIEM medium only) and technical controls (internal controls for DNA isolation and sequencing). • Each test condition was conducted in triplicate. • After 24 hours of fermentation in SIEM medium under anaerobic conditions at 37° C., samples were collected for DNA analyses. […]
(§5) Changes in the microbiota composition were analyzed by using 16S rDNA amplicon sequencing. […] Amplicon quality and size were analyzed on a Fragment Analyzer (Advanced Analytical Technologies, Inc.). […]

[2] = test system: Bifidobacteriaceae
Experimental: as §1, §2, §3, §4, §5

[3] = test system: Enterobacteriaceae
Experimental: as §1, §2, §3, §4, §5

B1: Lactoferrin (protein, UniProt P24627 20-708, looked up)
Lactotransferrin: APRKNVRWCTISQPEWFKCRRWQWRMKKLGAPSITCVRRAFALECIRAIAEKKADAVTLDGGMVFEAGRDPYKLRPVAAEIYGTKESPQTHYYAVAVVKKGSNFQLDQLQGRKSCHTGLGRSAGWIIPMGILRPYLSWTESLEPLQGAVAKFFSASCVPCIDRQAYPNLCQLCKGEGENQCACSSREPYFGYSGAFKCLQDGAGDVAFVKETTVFENLPEKADRDQYELLCLNNSRAPVDAFKECHLAQVPSHAVVARSVDGKEDLIWKLLSKAQEKFGKNKSRSFQLFGSPPGQRDLLFKDSALGFLRIPSKVDSALYLGSRYLTTLKNLRETAEEVKARYTRVVWCAVGPEEQKKCQQWSQQSGQNVTCATASTTDDCIVLVLKGEADALNLDGGYIYTAGKCGLVPVLAENRKSSKHSSLDCVLRPTEGYLAVAVVKKANEGLTWNSLKDKKSCHTAVDRTAGWNIPMGLIVNQTGSCAFDEFFSQSCAPGADPKSRLCALCAGDDQGLDKCVPNSKEKYYGYTGAFRCLAEDVGDVAFVKNDTVWENTNGESTADWAKNLNREDFRLLCLDGTRKPVTEAQSCHLAVAPNHAVVSRSDRAAHVKQVLLHQQALFGKNGKNCPDKFCLFKSETKNLLFNDNTECLAKLGGRPTYEEYLGTEYVTAIANLKKCSTSPLLEACAFLTR
notes: Friesland Campina, Vivinal Lactoferrin, comprises 96 wt. % lactoferrin; 2 mg/ml in well
[1]
  Average relative abundance (%) [st. dev] Bacteroidaceae: 19.81 (0.48) %
[2]
  Average relative abundance (%) [st. dev] Bifidobacteriaceae: 9.39 (1.50) %
[3]
  Average relative abundance (%) [st. dev] Enterobacteriaceae: 41.73 (1.64) %
